Target: T1, CD4-TLR4 (UniProt O00206+P06332)
T1 construct: forced dimerisation of TLR4 TIR domains in the absence of LPS (by overexpressing the fusion protein CD4-TLR4); CD4 (fusion partner); expressed in transfected cells; host or cells: HEK293_TLR4, transiently transfected with 50 or 100 ng CD4/TLR4-encoding plasmid
T1 sequence (P06332+O00206 with tags, fused parts or gaps): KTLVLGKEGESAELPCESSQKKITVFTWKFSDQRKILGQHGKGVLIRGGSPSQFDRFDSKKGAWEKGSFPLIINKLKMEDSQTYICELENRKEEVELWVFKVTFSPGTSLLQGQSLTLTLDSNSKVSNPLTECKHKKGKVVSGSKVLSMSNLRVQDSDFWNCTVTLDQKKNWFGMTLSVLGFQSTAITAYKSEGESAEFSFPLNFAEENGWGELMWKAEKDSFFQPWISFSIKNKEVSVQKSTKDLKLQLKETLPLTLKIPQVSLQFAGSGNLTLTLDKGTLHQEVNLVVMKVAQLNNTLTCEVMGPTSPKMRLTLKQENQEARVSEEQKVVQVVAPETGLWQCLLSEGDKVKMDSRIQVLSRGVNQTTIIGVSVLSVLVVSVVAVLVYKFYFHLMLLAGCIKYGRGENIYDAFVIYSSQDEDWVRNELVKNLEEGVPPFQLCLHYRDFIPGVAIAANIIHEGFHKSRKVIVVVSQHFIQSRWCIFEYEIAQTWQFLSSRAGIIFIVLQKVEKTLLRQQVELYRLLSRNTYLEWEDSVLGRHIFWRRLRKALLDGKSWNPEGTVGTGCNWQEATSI
Assay: ligand-independent NFκB activation by overexpressed CD4-TLR4 in HEK293_TLR4 cells
Format: cell-based
Conditions: 50 or 100 ng CD4/TLR4 plasmid, peptide 5 or 25 μM 2 or 9 hours after transfection
Description: FIGS. 24A and B are bar charts showing the effect of A464 on ligand-independent TLR4 signalling in HEK293 cells. HEK293_TLR4 cells were seeded in 96 well plate (1.5×10^5 cells/ml) 24 hours before transfection with NFκB-luciferase and TK-Renilla reporter gene plasmids. NFκB activation was stimulated by transfecting either 50 or 100 ng of CD4/TLR4-encoding plasmid or by stimulating with 10 ng/ml LPS. The total amount of plasmid DNA transfected into the cells was made up to 230ng by adding pcDNA. A464 (SEQ ID NO. 20) was added to the cells at a concentration of 5 or 25 μM 2 hours (A) or 9 hours (B) after the transfection or LPS-stimulation. Cells were harvested and assayed for NFκB activation by reporter gene assay 24 hours post-transfection. No peptides were added to the control wells (black bars). Data is representative of two experiments, each performed in triplicate and is expressed as mean fold induction±s.d. relative to control levels;
HEK293 cells were transfected using GeneJuice® a proprietary non-toxic transfection reagent. 200 μl/well cells at a density of 1×10^5 cells/ml were seeded the day before transfection. 0.8 μl of GeneJuice was mixed with 9.2 μl of serum-free DMEM (SFM) per transfection and incubated for 5 min at room temperature before adding the appropriate amount of the plasmid DNA. […] Luciferase activity was analysed using a luminometer. […]

## KYSFKLILAEYRRRRRRRRR [Peptide A464]
  inhibition of NFκB activated by forced dimerisation of TLR4 TIR domains (CD4-TLR4): insensitive to inhibition

Source: patent US8722052B2, “Vaccinia virus protein A46 peptide and use thereof” (priority 2008, dated 2014)
